What was measured:
human LILRB1 = target: T1, human LILRB1 (human, UniProt Q8NHL6 24-458, limits assumed); test: Octet off-rate ranking;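 note: antibody dissociation rate constants against cynomolgus LILRB2 plus human LILRB1, LILRB2, LILRA1 and LILRA2, measured on an Octet instrument to rank binding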
T1 construct: also called hLILRB1
Source text: Binding affinity of anti-LILRB1 and anti-LILRB2 antibodies against human LILRB1, LILRB2, LILRA1, LILRA2 and cynomolgus LILRB2 was ranked by measuring dissociation rate constant (Kdis) using the Octet system.

Biotinylated LILRB1 [1] = target: T2, Biotinylated LILRB1 (UniProt Q8NHL6 24-458, limits assumed, biotinylated (sites not given)); test: epitope binning ELISA, coated 1 ug/ml; competitor LK-RB1-33 at 20 ug/ml
T2 sequence (Q8NHL6 24-458 limits assumed): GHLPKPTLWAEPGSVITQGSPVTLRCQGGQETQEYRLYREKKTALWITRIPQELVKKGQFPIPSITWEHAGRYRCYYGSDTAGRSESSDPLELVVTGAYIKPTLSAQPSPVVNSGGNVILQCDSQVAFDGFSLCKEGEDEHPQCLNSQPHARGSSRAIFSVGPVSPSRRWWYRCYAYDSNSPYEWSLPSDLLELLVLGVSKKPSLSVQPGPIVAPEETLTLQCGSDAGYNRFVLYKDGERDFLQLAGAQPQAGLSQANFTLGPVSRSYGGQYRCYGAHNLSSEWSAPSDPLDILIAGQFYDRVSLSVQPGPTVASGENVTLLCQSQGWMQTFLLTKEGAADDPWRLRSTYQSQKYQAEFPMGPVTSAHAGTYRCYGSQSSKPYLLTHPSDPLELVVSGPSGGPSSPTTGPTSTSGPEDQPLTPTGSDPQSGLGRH

Biotinylated LILRB1 [2] = target: T2, Biotinylated LILRB1; test: epitope binning ELISA, coated 1 ug/ml; competitor 15G8 at 20 ug/ml
Procedure: (§1) Binding epitope of a subset of anti-LILRB1 and anti-LILRB2 antibodies was analyzed by epitope binning ELISA. Briefly, a panel of testing antibodies were coated onto ELISA plate. 50 ul/well Biotinylated LILRB1 or LILRB2 and 50 ul/well of competing antibodies were added to the coated plate and incubated at 37° C. for 1 hour. After Streptavidin-HRP (1:5000) incubation and TMB development, the plates were read at 450 nm using Molecular device spectra max plus384.

Biotinylated LILRB1 [3] = target: T2, Biotinylated LILRB1; test: epitope binning ELISA, coated 1 ug/ml; competitor LK-RB1-16 at 20 ug/ml
Procedure: as §1

Biotinylated LILRB1 [4] = target: T2, Biotinylated LILRB1; test: epitope binning ELISA, coated 1 ug/ml; competitor LK-RB1-31 at 20 ug/ml
Procedure: as §1

Biotinylated LILRB1 [5] = target: T2, Biotinylated LILRB1; test: epitope binning ELISA, coated 1 ug/ml; competitor LK-RB1-12 at 20 ug/ml
Procedure: as §1

Biotinylated LILRB1 [6] = target: T2, Biotinylated LILRB1; test: epitope binning ELISA, coated 1 ug/ml; competitor hz73D1.v1 at 20 ug/ml
Procedure: as §1

Biotinylated LILRB1 [7] = target: T2, Biotinylated LILRB1; test: epitope binning ELISA, coated 1 ug/ml; competitor LK-RB1-9 at 20 ug/ml
Procedure: as §1

Biotinylated LILRB1 [8] = target: T2, Biotinylated LILRB1; test: epitope binning ELISA, coated 1 ug/ml; competitor LK-RB1-47 at 20 ug/ml
Procedure: as §1

Biotinylated LILRB2 [9] = target: T3, Biotinylated LILRB2 (UniProt Q8N423 22-460, limits assumed, biotinylated (sites not given)); test: epitope binning ELISA; coated antibody 1 ug/ml, biotinylated LILRB2; competitor LK-RB2-24 at 20 ug/ml
T3 construct: also called biotinylated-LILRB2 protein
T3 sequence (Q8N423 22-460 limits assumed): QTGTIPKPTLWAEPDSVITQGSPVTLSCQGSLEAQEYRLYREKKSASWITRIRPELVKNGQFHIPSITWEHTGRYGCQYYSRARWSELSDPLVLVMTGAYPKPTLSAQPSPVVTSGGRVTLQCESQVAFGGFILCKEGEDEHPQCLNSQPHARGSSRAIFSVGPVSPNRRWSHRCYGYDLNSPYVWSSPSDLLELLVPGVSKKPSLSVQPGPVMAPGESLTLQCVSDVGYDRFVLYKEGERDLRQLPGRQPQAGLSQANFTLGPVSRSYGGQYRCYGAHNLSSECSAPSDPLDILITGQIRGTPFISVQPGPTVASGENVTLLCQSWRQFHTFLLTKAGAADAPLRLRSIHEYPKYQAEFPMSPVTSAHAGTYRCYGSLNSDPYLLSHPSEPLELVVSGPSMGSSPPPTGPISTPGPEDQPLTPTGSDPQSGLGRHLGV

Biotinylated LILRB2 [10] = target: T3, Biotinylated LILRB2; test: epitope binning ELISA; coated antibody 1 ug/ml, biotinylated LILRB2; competitor LK-RB2-14 at 20 ug/ml
Procedure: as §1

Biotinylated LILRB2 [11] = target: T3, Biotinylated LILRB2; test: epitope binning ELISA; coated antibody 1 ug/ml, biotinylated LILRB2; competitor hz73D1.v1 at 20 ug/ml
Procedure: as §1

human LILRB2-his = target: T4, human LILRB2-his (human, UniProt Q8N423 22-460, limits assumed); test: SPR (Biacore 8K), antibody captured via Fc, LILRB2-his as analyte, 1:1 model
T4 construct: Analyte of the Biacore run; not shown: His tag
T4 sequence (Q8N423 22-460 limits assumed): as above

Biotinylated LILRB2 [12] = target: T3, Biotinylated LILRB2; test: epitope binning ELISA; coated antibody 1 ug/ml, biotinylated LILRB2; competitor LK-RB2-3 at 20 ug/ml
Procedure: as §1

Biotinylated LILRB2 [13] = target: T3, Biotinylated LILRB2; test: epitope binning ELISA; coated antibody 1 ug/ml, biotinylated LILRB2; competitor J19.h1 at 20 ug/ml
Procedure: as §1

Biotinylated LILRB2 [14] = target: T3, Biotinylated LILRB2; test: epitope binning ELISA; coated antibody 1 ug/ml, biotinylated LILRB2; competitor LK-RB2-15 at 20 ug/ml
Procedure: as §1

Biotinylated LILRB2 [15] = target: T3, Biotinylated LILRB2; test: epitope binning ELISA; coated antibody 1 ug/ml, biotinylated LILRB2; competitor LK-RB2-2 at 20 ug/ml
Procedure: as §1

T1 sequence (Q8NHL6 24-458 limits assumed): as the sequence (Q8NHL6 24-458 limits assumed) above

| Binder | koff (human LILRB1) [s⁻¹] | Inhibition % (Biotinylated LILRB1 [1]) [%] | Inhibition % (Biotinylated LILRB1 [2]) [%] | Inhibition % (Biotinylated LILRB1 [3]) [%] | Inhibition % (Biotinylated LILRB1 [4]) [%] | Inhibition % (Biotinylated LILRB1 [5]) [%] | Inhibition % (Biotinylated LILRB1 [6]) [%] | Inhibition % (Biotinylated LILRB1 [7]) [%] | Inhibition % (Biotinylated LILRB1 [8]) [%] | Inhibition % (Biotinylated LILRB2 [9]) [%] | Inhibition % (Biotinylated LILRB2 [10]) [%] | Inhibition % (Biotinylated LILRB2 [11]) [%] | Kd (human LILRB2-his) [nM] | koff (human LILRB2-his) [s⁻¹] | kon (human LILRB2-his) [M⁻¹ s⁻¹] | Inhibition % (Biotinylated LILRB2 [12]) [%] | Inhibition % (Biotinylated LILRB2 [13]) [%] | Inhibition % (Biotinylated LILRB2 [14]) [%] | Inhibition % (Biotinylated LILRB2 [15]) [%] |
| --- | --- | --- | --- | --- | --- | --- | --- | --- | --- | --- | --- | --- | --- | --- | --- | --- | --- | --- | --- |
| LK-RB1-16 (antibody, human IgG4 S228P, kappa, V domains shown) VH: QVQLKESGPGLVAPSQSLSITCTVSGFSLISNAISWVRQPPGKGLEWLGVIWGDGNTIYHSALRSRLTISKDNSKSQVFLKLNSLQIDDTATYYCAKANWDGYYFDYWGQGTTLTVSS VL: DIQMNQSPSSLSASLGDTITITCHASQSVDFWLNWYQQKPGNIPKLLISKASNLHTGVPSRFSGSGSGTTFTLTISSLQPEDIATYYCQQGQSYPLTFGSGTKLEIKR | 5.92e-05 | -0.04 | 0.37 | 42.9 | 3.39 | 12.5 | 1.48 | 0.98 | 2.23 |  |  |  |  |  |  |  |  |  |  |
| LK-RB2-2 (antibody, human IgG4 S228P, kappa, V domains shown, Anti-LILRB2 antibody from mouse hybridoma; parental antibody of LK-RB2-2.h1 to h3) VH: DVKLEESGEGLVKPGGSLKLSCAASGFTFSSYAMSWVRQTPEKRLEWVAYISSGGDYFHYADTVKGRFTISRDNARNTLYLQMSSLKSEDTAMYYCTREGAHYDSSYLAWFAHWGQGTLVTVSA VL: DIQMTQSPASLSVSVGETVTITCRASENIYSNLAWYQQRQGKSPQLLVYAATNLADGVPSRFSGSGSGTQYSLKINSLQSEDFGSYYCQQFWDNPLTFGAGTKLELKR |  |  |  |  |  |  |  |  |  | 17.7 | 89.4 | 92.8 | 0.168 | 0.000134 | 800000 | 93.9 | 69.6 | 13.6 | 97.8 |
| LK-RB1-12 (antibody, human IgG4 S228P, kappa, V domains shown) VH: QVQLQQSGTELVRPGSSVMISCKASGYAFSTYWMDWVKQRPGQGLEWIGQIYPGDGATNYNGKFKGKATLTADKSSITAYMHLSSLTSEDSAVYFCLRSRDYDGWFFDVWGAGTTVTVSS VL: DIVMTQSHKFMSTSIGDRVSITCKASQDVSSAVAWYQQKPGQSPKLLIYWASTRHTGVPDRFTGSGSGTDYTLTFSSVQAEDLALYYCQQHYSTPWTFGGGTKLEIKR | 0.00126 | 75.3 | -9.78 | 88 | 83 | 90.3 | 77.3 | 84.5 | 83.2 |  |  |  |  |  |  |  |  |  |  |
| LK-RB1-33 (antibody, human IgG4 S228P, kappa, V domains shown) VH: QIQLVQSGPELKKPGDTVKISCKASGYTFTSYGMNWVKQAPGEGLKWMGWINTYSGVPTYGDDFKGRFAFSLETSASTAYLQINNLENEDTATYFCARRGRDSVVGHFDVWGTGTTVTVSS VL: DIVMTQSHKFMSTSVGDRVSITCKASQDVNTAVAWYQQKPGQSPKLLIYWASTRHTGVPDRFTGSGSGTDFTLTISSVQAEDLALYYCQQHYTIPFTFGSGTRLEIKR | 0.000155 | 96 | 72.2 | 3.49 | 4.35 | 68.8 | 88.7 | 94.8 | 96.5 |  |  |  |  |  |  |  |  |  |  |
| LK-RB2-15 (antibody, human IgG4 S228P, kappa, V domains shown, Anti-LILRB2 antibody from mouse hybridoma) VH: QIQLVQSGPELKKPGETVKISCKASGYTFTTYGMSWVKQAPGKGLKWMGWINVYSGVPTYADDFKGRFAFSLEISASTAYLQINNLKDEDTATYFCARRKDYSGHCFDYWGQGTTLTVSS VL: DIVLTQSPASLAVSLGQRATFSCRASESVDTYGISFMHWYQQKPGQPPKLLIYRASNLESGIPARFSGSGSRTDFTLTINPVETDDVATYYCQQSKKEPYTFGGGTKLEIKR |  |  |  |  |  |  |  |  |  | 96.8 | 85.4 | 15.1 |  |  |  | 22.1 | 8 | 94.3 | 47.1 |
| J19.h1 (antibody, human IgG4 S228P, kappa, V domains shown) VH: QITLKESGPTLVKPTQTLTLTCTFSGFSLNTYAMGVSWIRQPPGKALEWLASIWWNGNKYNNPSLKSRLTVTKDTSKNQVVLTMTNMDPVDTATYYCAHSRIIRFTDYVMDAWGQGTLVTVSS VL: DIQMTQSPSSLSTSVGDRVTITCRASEDIYNDLAWYQQKPGKAPKLLIYNANSLHTGVASRFSGSGSGTDFTFTISSLQPEDVATYFCQQYYDYPLTFGQGTKLEIKR |  |  |  |  |  |  |  |  |  | 44.5 | 96.1 | 95.9 |  |  |  | 93.9 | 92.5 | 17.5 | 97.8 |
| LK-RB1-31 (antibody, human IgG4 S228P, kappa, V domains shown) VH: QVQLKESGPGLVAPSQSLSITCTVSGFSLTSYGVSWVRQPPGKGLEWLGIIWGDGSTNYHSALKSRLSISKDNSKSQVFLKLNSLQTEDTATYYCAKPNWDYYAMDYWGQGTSVTVSS VL: DIQMTQTTSSLSASLGDRVTISCRASQDISNYLNWYLQKPDGTVKLLIYYTSRLHSGVPSRFSGSGSGTDYSLTISNLEQEDIATYFCQQGITLPCTFGGGTKLEIKR | 6.77e-05 | 1.14 | -1.73 | 75.7 | 64.4 | 87.4 | 54.1 | 10.5 | 5.86 |  |  |  |  |  |  |  |  |  |  |
| LK-RB1-47 (antibody, human IgG4 S228P, kappa, V domains shown) VH: QIQLVQSGPELKKPGETVKISCKASGYTFTTYGMSWVKQAPGKGLKWMGWINTYSGVPTYTDDFKGRFAFSVETSASTAYLQINNLKNEDTATYFCARRERDFYGNIFFPYWGQGSLVTVSA VL: DIQMTQTTSSLSASLGDRVTISCRASQDISNYLNWYQQKPDGTVKLLIYYTSRIHSGVPSRFSGSGSGTDFSLTISNLDQEDIATYFCQQGHTLPWTFGGGTKVEIKR | 0.000828 | 21.7 | 5.8 | 1.24 | 0.59 | 82.1 | 74.8 | 31.8 | 89.8 |  |  |  |  |  |  |  |  |  |  |
| LK-RB2-14 (antibody, human IgG4 S228P, kappa, V domains shown, Anti-LILRB2 antibody from mouse hybridoma) VH: QVQLKQSGPGLVQPSQSLSITCTVSGFSLTSYGVHWVRQSPGKGLEWLGVIWRGGSTDYNAAFMSRLSITKDNSKSQVFFKMNSLQADDTAIYYCAKNEGDSTVVAWYFDVWGTGTTVTVSS VL: DIQMTQTTSSLSASLGDRVTISCSASQGISNYLNWFQQKPDGTVKLLIYYTSSLHSGVPSRFSGSGSGTDYSLTISNLEPEDIATYYCQQYSKLPLTFGAGTKLELKR |  |  |  |  |  |  |  |  |  | 94.3 | 90.6 | 92.7 |  |  |  | 29.8 | 77.4 | 91.1 | 97.7 |
| LK-RB2-3 (antibody, human IgG4 S228P, kappa, V domains shown, Anti-LILRB2 antibody from mouse hybridoma) VH: QLQLQQSDAELVKPGASVKISCKVSGYSFTDHTIHWMKQRPEQGLEWIGYIYPRDGSTKENEKFTGKATLTADKSSSTAYMQLTSLTSEDSAVYFCTGSGFDYWGQGTSLTVSS VL: DIKMTQSPSSMYASLGERVTITCKASQDIKSYLSWFQQKPGKSPKTLIYRANRLVDGVPSRFSGSGSGQDYSLTINSLEYEDMEIYYCLQYDEFPYTFGGGTKLEIKR |  |  |  |  |  |  |  |  |  | 32.2 | 24.9 | 33.7 |  |  |  | 96.7 | 9.71 | 5 | 96.9 |
| hz73D1.v1 (antibody, human IgG4 S228P, kappa, V domains shown) VH: QVQLVQSGAEVKKPGASVKVSCKASGYTFTDYYINWVRQAPGQGLEWMGNVNPNDGGTTYNQKFKGRVTMTTDTSTSTAYMELRSLRSDDTAVYYCARREIYFYGTIYYYAMDYWGQGTLVTVSS VL: DIQLTQSPSFLSASVGDRVTITCRASESVDYYGNSFMYWYQQKPGKAPKLLIYFASNLESGVPSRFSGSGSGTEFTLTISSLQPEDFATYYCQQNNEDPWTFGGGTKVEIKR |  |  |  |  |  |  |  |  |  | 22.4 | 91.8 | 96.8 |  |  |  | 65.3 | 74.8 | 6.43 | 97.8 |

Reference: patent publication US20260234247A1 (published 2026)
